# Assay results published in publication PMC4488392 (2015).
# B1: HLA-B27 heavy chain homodimer (B27_(2)), recombinant HLA-B*2705 homodimer complex (complex)
# chain 1: GSHSMRYFHTSVSRPGRGEPRFITVGYVDDTLFVRFDSDAASPREEPRAPWIEQEGPEYWDRETQICKAKAQTDREDLRTLLRYYNQSEAGSHTLQNMYGCDVGPDGRLLRGYHQDAYDGKDYIALNEDLSSWTAADTAAQITQRKWEAARVAEQLRAYLEGECVEWLRRYLENGKETLQRADPPKTHVTHHPISDHEATLRCWALGFYPAEITLTWQRDGEDQTQDTELVETRPAGDRTFQKWAAVVVPSGEEQRYTCHVQHEGLPKPLTLRWEPSSQSTVPIV
# chain 2: SRYWAIRTR
# modifications: biotinylated (site not stated)
# Biological target: HD5
# Assay: SPR
binder,measurement,value
B1,Kd,0.32 nM
